How the values were obtained:
[1] = test system: CTLL cell; assay: CTLL cell proliferation assay (specific activity of rIL-2); format: cell-based; details: Example 3, Table III: rIL-2 conjugated to PEG with reagent of Example 1; label = apparent molecular weight (kD)
Procedure: Acad. Sci., USA, 84:1483, (1987)] using hydrophic exchange chromatography (Bio-Rad; Biogel-phenyl 5-PW). […] Aliquots of the fractions were evaluated by SDS-PAGE and pooled fractions were assayed to determine its specific activity in a CTLL cell proliferation assay by the method described by Gillis et al. [J. Immunology 120:2027, (1978)].

[2] = target: T1, IL-1 receptor on EL-4 membranes (Mus musculus, UniProt P13504); assay: IL-1 radioreceptor competition binding assay
T1 construct: incubated at varying concentrations with EL-4 membranes; endogenous in cells; host or cells: EL-4 cell membranes
T1 sequence (P13504 20-576): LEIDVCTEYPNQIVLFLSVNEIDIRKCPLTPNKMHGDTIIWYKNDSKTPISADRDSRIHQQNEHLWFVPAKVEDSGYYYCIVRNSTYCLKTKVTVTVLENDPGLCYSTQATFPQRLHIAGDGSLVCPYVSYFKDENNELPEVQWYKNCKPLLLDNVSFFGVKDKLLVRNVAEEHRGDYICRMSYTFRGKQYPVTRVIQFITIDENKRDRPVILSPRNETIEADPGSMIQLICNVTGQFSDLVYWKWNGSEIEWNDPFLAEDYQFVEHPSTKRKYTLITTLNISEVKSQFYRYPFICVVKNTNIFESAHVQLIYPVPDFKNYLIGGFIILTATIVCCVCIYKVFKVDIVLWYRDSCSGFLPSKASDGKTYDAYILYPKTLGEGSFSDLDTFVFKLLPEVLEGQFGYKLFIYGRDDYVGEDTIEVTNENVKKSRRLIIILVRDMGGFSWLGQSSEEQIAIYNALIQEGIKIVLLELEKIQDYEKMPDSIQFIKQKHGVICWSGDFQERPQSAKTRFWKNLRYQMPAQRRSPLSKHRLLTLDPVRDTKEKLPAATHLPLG
Procedure: Pegylated IL-1ra was purified from the reaction mixture using hydrophobic exchange chromatography (Bio-Rad; HRLC MP7 HlC). A linear gradient with decreasing salt concentrations from 0.43 to 0.0M (NH4)2 SO4 in 50 mM sodium phosphate pH 7.0 in 20 minutes was used to separate pegylated IL-1ra and unmodified IL-1ra. Aliquots of fractions were evaluated by SDS-PAGE and pooled fractions were assayed in an IL-1 radioreceptor competition binding assay. [Kilian et al. J. Immunol., 136, 4509, (1986)]. Briefly, IL-1ra and PEG-IL-1ra were incubated at varying concentrations with EL-4 membranes for 30 min at 37° C. The [^125 I]IL-1 alpha was then added and the incubation continued for 30 min. The assay was terminated by vacuum filtration and the collection of cell bound [^125 I]IL-1 on filter plates. The concentration of IL-1ra or PEG-IL-1ra that inhibits binding of [^125l]IL- 1 by 50% (IC50) was determined graphically. […] The pegylated IL-1ra mixture retained its ability-to bind to the IL-1 receptor on EL-4 membranes within a factor 2 to 3 fold relative to the unmodified II1-1ra.

[3] = test system: MDBK; assay: Anti-viral activity (specific activity) in an MDBK assay; format: cell-based; details: label = apparent molecular weight (kD)
Procedure: The predominant molecular weight species from the reaction mixture were identified by SDS-PAGE with apparent molecular weights of 15 (unmodified),and 28 kD. The 28 kD pegylated protein accounted for 40% of the, total protein. The pegylated IFN-alpha was purified from the 60 minute reaction mixture and characterized using hydrophobic exchange chromatography (Bio-Rad; Biogel-phenyl-S-PW). A linear gradient with decreasing salt concentrations from 0.42M to 0.0M (NH4)2 SO4 in 50 mM sodium phosphate pH 7.0 in 20 minutes was used to separate pegylated IFN-alpha and unmodified IFN-alpha. Aliquots of the fractions were evaluated by SDS-PAGE and pooled fractions were assayed for anti-viral activity (specific activity) in an MDBK assay by the method described in by Familletti, et al. [Methods Enzym. 78,387 (1987)].
Protein concentrations were determined spectrophotometrically at […] using an extinction coefficient of 1.0 for a 1 mg/ml IFN-alpha buffered solution.

[4] = test system: D10 cell; assay: D10 cell proliferation assay (specific activity of rIL-1 alpha); format: cell-based; details: for Specific Activity: label = apparent molecular weight (kD)
Procedure: Pegylated rIL-1 alpha was purified from the reaction mixture after 60 minutes using hydrophobic exchange chromatography (Bio-Rad; HRLC. MP7 HlC). A linear gradient with decreasing salt concentration from 0.43 to 0.0M (NH4)2 SO4 in 50 mM sodium phosphate pH 7.0 in 20 minutes was used to separate pegylated rIL-1 alpha and unmodified rIL-1 alpha. Aliquots of fractions were evaluated by SDS-PAGE and pooled fractions were assayed for specific activity in a D10 cell proliferation assays by the method described by Kaye et al. [J. Exp. Med. 158:836, (1983)]. Protein concentrations were determined spectrophotometrically at […] using an extinction coefficient of 1.0 for rIL-1 alpha. The specific activity of the rIL-1 alpha is approximately 1.0×10^8 units/mg. The 26 kD pegylated IL-1 alpha conjugate retains bioactivity within 2-3 fold of relative to IL-1 alpha.

[5] = test system: rIL-1alpha induction of interleukin-6; assay: Inhibition of rIL-1alpha induction of interleukin-6 in mice (pharmacodynamics); format: in vivo
Procedure: The pharmacodynamics of IL-1ra protein was evaluated in vivo by the ability of the IL-1ra to inhibit rIL-1alpha induction of interleukin-6. Serum from mice treated with rIL-1alpha contain high levels of IL-6, [McIntosh et al., Immunol. 143: 162, (1989)]. The administration of unmodified IL-1ra together with IL-1alpha (0 hr time point) inhibits the induction of IL-6. This test system was used to compare the pharmacodynamic properties of unmodified and PEG IL-1ra. […] Three hours later, serum samples were collected. IL-6 levels (units) were determined using a modification of an IL-6 assay that has been previously described [Van Snick et al., Proc. Natl. Acad. Sci. USA 83:9679, (1986)]. In the IL.-6 assay, B9 hybridoma cells were treated with two fold serial dilutions of the test sera in 96-well microtiter plates. Following a 3 day incubation at 37° C. in a humidified atmosphere comprised of 5% CO2 and 95% air, the wells were pulsed with 0.5 uCi of tritiated thymidine and incubated for an additional 18 hr. The cells were then harvested onto glass fiber filters and the level of tritiated thymidine incorporation was determined by scintillation counting. IL-6 activity is expressed as U/ml. IL-6 units are defined as the inverse of the serum dilution which produces half-maximal tritiated thymidine incorporation compared to a reference standard.

[6] = Example 7, Table VIII: rIL-1 alpha conjugated with reagent of Example 5

Molecule: alpha-[(2-Pyridinyloxy)thiocarbonyl]-omega-methoxypoly (oxy-1,2-ethanediyl) SRU 225 [Example 28]
- Specific Activity [1]: 2.4 × 10^7 units/mg
- IC50 ([2]; Example 12, Table XII: IL-1ra pegylated with reagent of Example 11, label = apparent molecular weight (kD)): 3.0 ng/mL
- Specific Activity ([3]; Example 8, Table IX: IFN-alpha conjugated with reagent of Example 5): 1.4 × 10^8 units/mg
- Specific Activity ([3]; Example 20, Table XVI: IFN-alpha conjugated with reagent of Example 18): 8.0 × 10^7 units/mg

Molecule: alpha-[2-[[(2-Pyridinyloxy)carbonyl]amino]ethyl]omega-[2-[[(2-pyridinyloxy)carbonyl]amino]-ethoxy]poly(oxy-1,2-ethanediyl) SRU 180 [Example 33]
- IC50 ([2]; Example 6A, Table VII: IL-1ra conjugated with reagent of Example 5a, label = apparent molecular weight (kD)): 9.0 ng/mL
- IC50 ([2]; Example 12A, Table XIII: IL-1ra pegylated with reagent of Example 11a, label = apparent molecular weight (kD)): 6.0 ng/mL
- IC50 ([2]; Example 19, Table XIV: IL-1ra pegylated with reagent of Example 18, label = apparent molecular weight (kD)): 30.0 ng/mL
- IC50 ([2]; Example 19A, Table XV: IL-1ra pegylated with reagent of Example 18a, label = apparent molecular weight (kD)): 9.0 ng/mL
- IC50 ([2]; Example 29, Table XX: IL-1ra pegylated with reagent of Example 28, label = molecular weight (kD)): 5.0 ng/mL
- Specific Activity [4, 6]: 4.5 × 10^6 units/mg

Molecule: rIL-1 alpha: Recombinant Interleukin 1-alpha, unmodified; apparent molecular weight 17 kD by SDS-PAGE
- IL-6 in mice treated only with IL-1 ([5]; Example 6 experiment, 0.2 ug rIL-1 alpha, serum three hours later): 28852 U/ml
- IL-6 induced by IL-1 alone ([5]; Example 12 experiment): 27283 u/ml
- IL-6 response to IL-1 alone ([5]; Example 19A experiment, 0.05 ug rIL-1 alpha): 9203 units/ml
- Specific Activity [4, 6]: 4.6 × 10^7 units/mg
- Specific Activity ([4]; Example 27, Table XIX: rIL-1 alpha conjugated to PEG with reagent of Example 23): 1.1 × 10^8 units/mg
- specific activity of the rIL-1 alpha ([4]; general statement, Example 7): approximately 1.0×10^8 units/mg

B1: 26 kD rIL-1 alpha (Example 7): rIL-1 alpha pegylated with the reagent of Example 5; apparent molecular weight 26 kD (conjugate, UniProt P01583 113-271, looked up)
Interleukin-1 alpha: SAPFSFLSNVKYNFMRIIKYEFILNDALNQSIIRANDQYLTAAALHNLDEAVKFDMGAYKSSKDDAKITVILRISKTQLYVTAQDEDQPVLLKEMPEIPKTITGSETNLLFFWETHGTKNYFTSVAHPNLFIATKQDYWVCLAGGPPSITDFQILENQA
modifications: PEG conjugate
notes: apparent molecular weight 26 kD
- bioactivity relative to IL-1 alpha ([4]; Example 7): 2-3 fold

B2: 33 kD rIL-1 alpha (Example 7): rIL-1 alpha pegylated with the reagent of Example 5; apparent molecular weight 33 kD (conjugate, UniProt P01583 113-271, looked up)
Interleukin-1 alpha: SAPFSFLSNVKYNFMRIIKYEFILNDALNQSIIRANDQYLTAAALHNLDEAVKFDMGAYKSSKDDAKITVILRISKTQLYVTAQDEDQPVLLKEMPEIPKTITGSETNLLFFWETHGTKNYFTSVAHPNLFIATKQDYWVCLAGGPPSITDFQILENQA
modifications: PEG conjugate
notes: apparent molecular weight 33 kD
- bioactivity relative to IL-1 alpha ([4]; Example 7): substantial loss of bioactivity

From US5559213A, “Polyethylene-protein conjugates” (Hoffmann-La Roche Inc., priority 1995, dated 1996)
